Here are results for 1 molecule from US20230227537A1.

The assay deals with Mouse IgG1 Fc fused SARS-CoV-2 RBD (Sino Biological) (SARS-CoV-2; mouse), P0DTC2. As to conditions: remark: other sources report otherwise.

“And” between values parts separate entries of the source, which are not always exact repeats. Equal entries are not always repeated.

B1: VHH72_S56A-Fc (P. pastoris) (Fc fusion)
chain: QVQLQESGGGLVQAGGSLRLSCAASGRTFSEYAMGWFRQAPGKEREFVATISWSGGATYYTDSVKGRFTISRDNAKNTVYLQMNSLKPDDTAVYYCAAAGLGTVVSEWDYDYDYWGQGTQVTVSS
In the case of B1, the % Signal decrease over 8 min dissociation was 6% and 7%; the Kd (as a rule, the constant that tells how readily two partners part at equilibrium) is 0.0496 nM and 0.0541 nM; the koff (as a rule, the first-order rate constant of dissociation) is 0.000123 s⁻¹ and 0.000146 s⁻¹; the kon (as a rule, the second-order rate constant of association) was 2.48e+06 M⁻¹ s⁻¹ and 2.69e+06 M⁻¹ s⁻¹.
